# Values joined by “and” are separate entries in the source; they are usually repeats but may differ in a detail not shown here. Equal values may be shown once.
# B1: anti-NRR2: affinity matured form of Antibody D, phage library-derived human anti-Notch2 NRR monoclonal antibody (antibody, V domains shown)
# VH: EVQLVESGGGLVQPGGSLRLSCAASGYTFSSYGMSWVRQAPGKGLEWVSYIYPYSGATYYADSVKGRFTISADTSKNTAYLQMNSLRAEDTAVYYCARHSGYYRISSAMDVWGQGTLVTVSA
# VL: DIQMTQSPSSLSASVGDRVTITCRASQNIKRFLAWYQQKPGKAPKLLIYGASTRESGVPSRFSGSGSGTDFTLTISSLQPEDFATYYCQQYYRSPHTFGQGTKVEIKR
# Key:
# [1] = system: Notch2 NRR; assay: ELISA binding to purified Notch2 NRR proteins; settings: purified human or mouse protein, up to highest antibody concentration tested
# From the text: (§1) The N-myc-Notch transgenes were expressed under control of the inducible tet promoter; bottom row, control expression in the absence of induction with doxycycline (−Dox); top row, induced expression following addition of doxycycline (+Dox); note that the K1-CHO line endogenously expresses Notch2, which is detected by anti-NRR2 in the presence and absence of doxycycline (for example, compare panels 7 and 10).
# Anti-Flag antibody was used to capture Flag-Tagged NRR protein from all four Notch receptors in a black walled, high binding plate (Greiner). NRR antibody and E25 control antibodies were bound to the NRR proteins and washed away with PBS. An Alkaline Phosphate conjugated anti-human (H+L) secondary antibody (Jackson ImmunoResearch) was used to detect bound anti-NRR and E25. Unbound secondary was washed away and AP was detected with PNPP substrate (Pierce).
# [2] = biological target: T1, myc-Notch2 on K1-CHO cells (Homo sapiens, UniProt Q04721); assay: FACS binding to K1-CHO cells expressing N-myc-Notch2; assay type: cell-based; settings: doxycycline induced
# T1 construct: either the Notch1 or Notch2 extracellular domain and trans-membrane domains were N-terminally myc-tagged; expressed in transfected cells; host or cells: CHO-K1 (Tet-inducible, doxycycline)
# T1 sequence (Q04721 26-1677 limits assumed): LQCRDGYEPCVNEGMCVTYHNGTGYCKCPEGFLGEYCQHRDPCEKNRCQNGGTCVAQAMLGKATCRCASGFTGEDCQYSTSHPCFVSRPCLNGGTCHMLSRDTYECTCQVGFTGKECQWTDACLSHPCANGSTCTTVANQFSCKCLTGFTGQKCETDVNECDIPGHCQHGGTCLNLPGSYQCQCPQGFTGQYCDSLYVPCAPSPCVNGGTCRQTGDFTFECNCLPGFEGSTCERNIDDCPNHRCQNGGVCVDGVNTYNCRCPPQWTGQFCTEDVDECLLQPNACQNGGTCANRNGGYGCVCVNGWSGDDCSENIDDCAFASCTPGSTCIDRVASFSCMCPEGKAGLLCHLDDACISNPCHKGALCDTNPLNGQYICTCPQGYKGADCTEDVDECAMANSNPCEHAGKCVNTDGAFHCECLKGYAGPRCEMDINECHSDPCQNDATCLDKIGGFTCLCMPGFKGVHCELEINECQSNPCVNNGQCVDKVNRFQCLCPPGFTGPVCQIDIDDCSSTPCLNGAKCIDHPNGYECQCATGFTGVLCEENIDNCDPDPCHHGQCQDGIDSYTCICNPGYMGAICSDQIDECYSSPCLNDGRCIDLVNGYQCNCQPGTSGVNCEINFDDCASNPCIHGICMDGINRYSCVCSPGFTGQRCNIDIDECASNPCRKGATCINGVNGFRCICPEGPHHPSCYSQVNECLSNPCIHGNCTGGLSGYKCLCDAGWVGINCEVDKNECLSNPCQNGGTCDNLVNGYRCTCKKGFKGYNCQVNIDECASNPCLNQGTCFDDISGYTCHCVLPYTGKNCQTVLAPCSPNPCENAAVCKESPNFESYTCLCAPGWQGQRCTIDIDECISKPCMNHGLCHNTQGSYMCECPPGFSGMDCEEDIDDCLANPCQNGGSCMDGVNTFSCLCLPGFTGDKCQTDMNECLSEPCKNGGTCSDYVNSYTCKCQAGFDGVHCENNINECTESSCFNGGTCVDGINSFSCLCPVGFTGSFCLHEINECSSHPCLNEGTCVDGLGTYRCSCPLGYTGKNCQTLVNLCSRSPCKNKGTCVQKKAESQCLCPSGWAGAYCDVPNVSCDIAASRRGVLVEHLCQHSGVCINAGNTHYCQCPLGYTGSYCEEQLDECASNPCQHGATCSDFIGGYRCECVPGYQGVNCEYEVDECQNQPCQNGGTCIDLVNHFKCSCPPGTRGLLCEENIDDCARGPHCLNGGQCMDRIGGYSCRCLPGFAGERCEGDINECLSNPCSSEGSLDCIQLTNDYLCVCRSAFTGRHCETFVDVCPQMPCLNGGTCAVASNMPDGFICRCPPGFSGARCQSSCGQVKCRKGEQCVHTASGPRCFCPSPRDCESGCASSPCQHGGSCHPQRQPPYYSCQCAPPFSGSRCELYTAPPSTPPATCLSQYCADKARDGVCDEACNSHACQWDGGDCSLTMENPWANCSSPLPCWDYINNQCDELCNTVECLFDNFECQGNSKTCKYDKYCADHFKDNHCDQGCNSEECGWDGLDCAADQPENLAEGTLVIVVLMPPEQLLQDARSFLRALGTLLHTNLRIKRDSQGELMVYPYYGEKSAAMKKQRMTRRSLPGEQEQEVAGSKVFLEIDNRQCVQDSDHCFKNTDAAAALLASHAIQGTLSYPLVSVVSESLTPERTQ
# From the text: as §1
# Expression plasmids were made in which either the Notch1 or Notch2 extracellular domain and trans-membrane domains were N-terminally myc-tagged and expressed under the control of a Tetracycline Response Element (TRE) upstream of a minimal CMV immediate early promoter. These plasmids were stably transfected into CHO-K1 cells (Clonetech), engineered to express a transactivator protein in the presence of Doxycycline that binds to and activates the TRE in the transfected plasmid. Cells were treated with […] doxycycline or vehicle for 48 hrs, and then stained with anti-NRR, anti-myc (9E10, Millipore) or E25 control antibodies and either goat anti-human Alexa 488 or Alexa 647 secondary antibodies (Invitrogen). After staining, cells were run on a FACScalibur machine (BD Biosciences) and 15000 events were collected and range gates were drawn to assess positively and negatively stained populations.
# [3] = system: Notch2 signaling; assay: Co-culture Notch reporter assay, Notch2 signaling (U87MG cells + Jag1 cells); assay type: cell-based
# Procedure: NIH-3T3 cells stably transfected with Jag1 were used to induce Notch signaling in NIH-3T3 cells stably transfected with Notch1 (except for “−Jag1”, which used untransfected NIH-3T3 cells in place of the Jag1-expressing cells). […] NIH-3T3 cells stably transfected with Jag1 were used to induce Notch signaling in U87MG cells, which express high levels of Notch2. The assay was performed as described in (A). […] The assay was performed as in (A) except that the receptor-expressing cells were generated by transient transfection of plasmids expressing the indicated Notch1 receptors.
# Co-culture assay in U87MG cells, as described in FIG. 10B.
# NIH-3T3 cells either stably transfected with Notch 1 or transiently transfected with plasmids containing other Notch receptors were co-transfected with a Notch-responsive TP-1 (12× CSL) Firefly luciferase reporter and a constitutively active Renilla Luciferase reporter (pRL-CMV, Promega) to control for transfection efficiency. Cells are allowed to recover from the transfection from 6 hours to overnight. Treatments of antibodies and NIH-3T3 cells stably transfected with ligand are used to stimulate the receptor cells. After 20 hours, firefly and Renilla luciferase are measured with Dual Glo Luciferase Assay system (Promega). Eight replicates were analyzed for each condition by dividing the Firefly signal by the Renilla signal to control for transfection efficiency. The mean and standard deviation were calculated and values were normalized to calculated values for co-culture stimulated with NIH-3T3 cells without ligand transfected.
# [4] = system: splenic marginal zone B (MZB) cells; assay: Marginal zone B cell analysis in Balb/c mice; assay type: in vivo, mouse; settings: 5 mg/kg, spleen, CD21/CD23 FACS, three animals
# Procedure: Balb/c mice were injected four times every four days with 5 mg/kg of α-gD isotype control, α-NRR1 or α-NRR2, and cells were harvested from the thymus or spleen on day 13, one day after the fourth dose. (A) Thymus weight measurements. Thymus weights (in mg) are expressed relative to total body weight (in g). Values represent the mean plus standard deviation for three mice per group. (B) Thymus cell count. (C) CD4 and CD8 FACS to identify CD4^+/CD8^+ double-positive T cells. Numbers represent the percentage of thymic cells in the double-negative, single-positive and double-positive populations. […] (D) CD21 and CD23 FACS to identify marginal zone B cells. Numbers represent the mean percentages ±standard deviation (from three animals) of cells within the MZB gate, which is boxed; p values are also noted; representative dot plots from one of the three animals in each group are graphed.
# Splenocytes were isolated from the mice and were stained for FACS with B220-PerCP, CD23-PE and CD21-FITC (BD Biosciences) as previously described (Saito, et al., Immunity, Vol. 18, 675-685, May 2003).
# [5] = system: Notch1-NRR / Notch2 NRR chimeric proteins; assay: Epitope mapping: plate binding to Notch1-NRR/Notch2 NRR chimeric proteins fused to alkaline phosphatase; settings: domain swap
# Procedure: The indicated NRR protein fragments (dark blue, Notch1 sequences; light blue, Notch2 sequences) were expressed as secreted proteins fused to alkaline phosphatase to enable rapid measurements of antibody binding in a plate-based assay. […] Antibody binding was assessed by measuring alkaline phosphatase activity that remained bound to the plate. […] (B) Structure of human Notch NRR1. NRR1 is shown as a C-alpha cartoon. The three calcium ions in the LNR motifs are shown as spheres. The position of the S2 cleavage site is marked with an arrow. (C) Superposition of NRR1 on NRR2 (chain A from pdb code 2OO4) based on structurally conserved atoms. NRR1 (shaded) and NRR2 (white) are shown as C-alpha traces. (D) Open-book view of the interface between NRR1 (left) and α-NRR1 Fab (right, border between heavy and light chains shown as a black dashed line). The extent to which the solvent accessible surface area is buried by complex formation is indicated.
# Synthetic Notch1 and Notch2 NRR sequences were designed with unique restriction sites at junctions between the five domains of the NRR-LNR-A; LNR-B; LNR-C; HD-N; and HD-C—and produced by Blue Heron Technology (Bothell, Wash.). Swapping various domains between the two synthetic sequences, using the engineered restriction sites, generated chimeric NRR proteins. The chimeric clones were assembled in a modified pUC19 vector and transferred to a SEAP containing vector, pCSC.AP, for expression. AP-tagged NRR proteins were produced by transfection of 293T cells. After 72 hr culture, the conditioned media was collected, cleared by centrifugation, and tested for AP activity using the Phospha-Light System (Applied Biosystems, Bedford, Mass.). The AP activity in each sample was normalized and an ELISA was performed to test the ability of α-NRR1 or α-NRR2 to bind the chimeric NRR proteins. The ELISA was performed as follows: either α-NRR1 or α-NRR2 was captured by a plate bound α-Fc antibody in 96-well format and incubated with the conditioned media overnight. The plate was washed to remove unbound protein, and the captured protein was tested for AP activity using the Phospha-Light System.
molecule,measurement,setting,value
B1,binding to Notch2 NRR proteins,[1],bound specifically
same,binding to myc-Notch2 cells,[2],significantly bound
same,effect on Notch2 reporter signaling,"[3]; Jag1-induced, DAPT 5 μM",inhibition of Notch2 signaling
same,"inhibition of signaling induced through Jag1, Jag2, D111 and D114",[3]; all Notch ligands tested,inhibited signaling
same,percentage of cells within the MZB gate (mean ± standard deviation),[4],0.97% and 0.97+/−0.45%
same,binding to chimera containing only the LNR-A and HD-C subdomains from NRR2,[5],weak but detectable binding
same,binding to chimera with LNR-A of NRR1 in the NRR2 backbone,[5],completely disrupted
same,binding to chimeras C.Hn and BC (only three subdomains from NRR2),[5],full binding
same,binding to chimeras with swaps of LNR-B or LNR-C in the NRR2 backbone,[5],no effect
